Values of other authors, collected in US20220280439A1, “METHODS FOR LOWERING THE INFECTION RATE OF VIRUSES” (Finncure Oy, priority 2020, published 2022).

Target: ACE2 (Homo sapiens, UniProt Q9BYF1)
Settings: simulation, ref [8]; for binding affinity towards the ACE2 receptor: compared with hexapeptide YKYRYL

ACE2, sequence (Q9BYF1 18-805): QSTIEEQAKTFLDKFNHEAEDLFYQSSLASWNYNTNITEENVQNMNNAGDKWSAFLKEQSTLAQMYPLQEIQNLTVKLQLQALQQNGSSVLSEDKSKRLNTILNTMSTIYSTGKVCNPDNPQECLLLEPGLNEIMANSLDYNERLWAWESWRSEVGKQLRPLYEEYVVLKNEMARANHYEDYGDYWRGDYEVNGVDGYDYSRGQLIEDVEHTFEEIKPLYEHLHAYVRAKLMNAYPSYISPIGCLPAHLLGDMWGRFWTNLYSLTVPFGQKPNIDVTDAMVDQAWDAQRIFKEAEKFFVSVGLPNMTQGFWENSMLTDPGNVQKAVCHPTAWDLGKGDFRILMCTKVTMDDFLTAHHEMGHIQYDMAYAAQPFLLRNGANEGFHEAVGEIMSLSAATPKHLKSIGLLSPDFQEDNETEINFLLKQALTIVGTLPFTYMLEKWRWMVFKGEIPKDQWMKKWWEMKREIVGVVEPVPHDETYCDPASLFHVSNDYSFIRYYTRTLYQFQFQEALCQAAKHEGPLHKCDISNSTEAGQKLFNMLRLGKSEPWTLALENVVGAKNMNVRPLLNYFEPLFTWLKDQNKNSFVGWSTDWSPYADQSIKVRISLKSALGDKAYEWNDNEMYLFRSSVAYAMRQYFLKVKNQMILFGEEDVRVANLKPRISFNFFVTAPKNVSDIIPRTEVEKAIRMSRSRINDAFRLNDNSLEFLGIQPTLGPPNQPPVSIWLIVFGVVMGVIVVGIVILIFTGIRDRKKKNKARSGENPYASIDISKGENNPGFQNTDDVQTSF

## YKYNYI (Potential alternative synthetic hexapeptide variant) [alternative synthetic hexapeptide variant from simulation]
  binding affinity towards the ACE2 receptor: even stronger binding affinity

## YKYNYL (Potential alternative synthetic hexapeptide variant) [alternative synthetic hexapeptide variant from simulation]
  binding affinity towards the ACE2 receptor: even stronger binding affinity

## YKYRYL
Binding to ACE2, estimated
  Kd: 46 µM
